Assay results: patent US20210380680A1 (ZLLP, published 2021)
Substitutions are numbered along the chain they refer to. Numbers in names are those of the source.

B1: Xi282A12F3(T62A)-V2-DL (antibody, V domains shown)
VH: QVQLKESGPVLVQPSQTLSLTCTVAGFSLTSYNVYWVRQPPGKGLEWMGVIWNTGATRYNSALKSRLSISKDTSKSQVFLKMNSLQTEDTATYYCARDSAMPAIPFAYWGQGTLVTVSS
VL: DIVMTQSPSSLAVSAGETVTINCKSSQSLFGSVRQKNYLAWYQQKPGQSPKLLIYLASTRESGVPDRFIGSGSGTDFTLTISSVQAEDLAKYYCQQYYDIPWTFGGGTKLELK
B2: hz282-11-V2 (antibody, V domains shown)
VH: QVQLQESGPGLVKPSETLSLTCTVSGFSLTSYNVYWIRQPPGKGLEWIGVIWNTGATRYNSALKSRVTISKDTSKSQVSLKLSSVTAADTAVYYCARDSAMPAIPFAYWGQGTLVTVSS
VL: DIQMTQSPSSLSASVGDRVTITCKSSQSLFGSVRQKNYLAWYQQKPGKAPKLLIYLASTRESGVPSRFSGSGSGTDFTLTISSLQPEDFATYYCQQYYDIPWTFGGGTKVEIK
B3: hz282-15-V2 (antibody, V domains shown)
VH: B2 VH
VL: B2 VL with A49S, S66D, T91K
B4: 413H9F8-VL-S32V-V2-DL (antibody, V domains shown)
VH: DVQLVESGGGSVQPGGSRRLSCAASGFTFSSFGMHWVRQAPEKGLEWVAYISSGSSPIYYVDKLKGRFTVSRDNPKNTLFLQMTSLRSEDTAMYYCARAGYAVRNALDYWGQGTSITVSS
VL: DIVMTQSPSSLSVSVGEKVTLSCKSSQSLLNVGNQKNYLAWYQQKTGQPPKLLIYGASTRESGVPDRFIGSGSGTDFTLTISSVQAEDLAVYFCQNDLFYPLTFGAGTKLELK
B5: 357B8F8-VH-S61I-VL-S32I (antibody, human IgG1, kappa, V domains shown)
VH: QVQLKESGPGLVAPSQSLSITCTVSGFSLTSYGVHWVRQPPGKGLEWLGVIWPGGNTNYNIALMSRLSISKDNSKSQVFLKMNSLQTDDTAMYYCARDRRLAMDYWGQGTSVTVSS
VL: DIVMTQSPSSLTVTAGEKVTMTCKSSQSLLNIGNQKNYLTWYQQKPGQPPKLLIYWASTRESGVPDRFTGSGSGTDFTLTISILQAEDLAVYYCQNDYSYPFTFGSGTKLEIKR
B6: 413H9F8-VL-S32L (antibody, human IgG1, kappa, V domains shown)
VH: B4 VH
VL: DIVMTQSPSSLSVSVGEKVTLSCKSSQSLLNLGNQKNYLAWYQQKTGQPPKLLIYGASTRESGVPDRFIGSGSGTDFTLTISSVQAEDLAVYFCQNDLFYPLTFGAGTKLELKR
B7: 364D1A7-VL-S32L (antibody, human IgG1, kappa, V domains shown)
VH: DVQLVESGGGLVQPGGSRKLSCAASGFTFSSFGMHWVRQAPEKGLEWVAYISSGSGSIYYADTVKGRFTLSRDNPKNTLFLQMTSLRSEDTAIYYCATSYYYGNALEYWGQGTSVTVSS
VL: DVVLTQSPSSLTVTEGEKVSMSCKSSQSLFNLGNQKNYLTWYQQKPGQTPTLLIYWASTRKSGVPDRFTGSGSGTDFTLTINTVQAEDLAVYYCQNVYSYPLTFGAGTKLDLKR
B8: 364D1A7-H1L1 (antibody, V domains shown)
VH: EVQLVESGGGLVQPGGSLRLSCAASGFTFSSFGMHWVRQAPGKGLEWVSYISSGSGSIYYADTVKGRFTISRDNAKNSLYLQMNSLRAEDTAVYYCATSYYYGNALEYWGQGTTVTVSS
VL: DIVMTQSPDSLAVSLGERATINCKSSQSLFNVGNQKNYLTWYQQKPGQPPKLLIYWASTRKSGVPDRFSGSGSGTDFTLTISSLQAEDVAVYYCQNVYSYPLTFGGGTKVEIK
notes: humanized IgG; constant regions not specified
B9: 364D1A7-H3L1 (antibody, V domains shown)
VH: B8 VH with S49A, I70L, A75P
VL: B8 VL
notes: as for B8
B10: 413H9F8-H1L1 (antibody, V domains shown)
VH: EVQLVESGGGLVQPGGSLRLSCAASGFTFSSFGMHWVRQAPGKGLEWVSYISSGSSPIYYVDKLKGRFTISRDNAKNSLYLQMNSLRAEDTAVYYCARAGYAVRNALDYWGQGTLVTVSS
VL: B8 VL with F30L, T40A, W56G, K61E, V97D, Y98L, S99F
notes: as for B8
B11: 413H9F8-H1L3 (antibody, V domains shown)
VH: B10 VH
VL: B8 VL with F30L, T40A, W56G, K61E, S69I, Y93F, V97D, Y98L, S99F
notes: as for B8
B12: 413H9F8-H2L1 (antibody, V domains shown)
VH: B10 VH with S49A
VL: B8 VL with F30L, T40A, W56G, K61E, V97D, Y98L, S99F
notes: as for B8
B13: 413H9F8-cp1 (antibody, V domains shown)
VH: B10 VH
VL: EIVMTQSPPTLSLSPGERVTLSCKSSQSLLNVGNQKNYLAWYQQKPGQAPRLLIYGASTRESGIPARFSGSGSGTDFTLTISSLQPEDFAVYYCQNDLFYPLTFGGGTKVEIK
notes: as for B8
B14: hz282-4 (antibody, V domains shown)
VH: B2 VH with S25A
VL: DIVMTQSPDSLAVSLGERATINCKSSQSLFGSVRQKNYLAWYQQKPGQPPKLLIYLASTRESGVPDRFSGSGSGTDFTLTISSLQAEDVAVYYCQQYYDIPWTFGGGTKVEIK
notes: as for B8
B15: hz282-8 (antibody, V domains shown)
VH: B2 VH with S25A
VL: B14 VL with P49S, V91K
notes: as for B8
B16: hz282-10 (antibody, V domains shown)
VH: B2 VH with S76N
VL: B2 VL
notes: as for B8
B17: hz282-11 (antibody, V domains shown)
VH: B2 VH
VL: B2 VL
notes: humanized IgG; constant regions not specified; also called humanized 282A12(T62A) (hz282-11)
B18: hz282-12 (antibody, V domains shown)
VH: B2 VH with S25A
VL: B2 VL
notes: as for B8
B19: hz282-15 (antibody, V domains shown)
VH: B2 VH
VL: B2 VL with A49S, S66D, T91K
notes: as for B8
B20: hz282-20 (antibody, V domains shown)
VH: B2 VH with S25A
VL: B2 VL with Q3V, T22N, A49S, S66D, T91K
notes: as for B8

Biological target: T1, human Claudin 18.2 (CLDN18.2) (human, UniProt P56856-2 1-261)
Assay: cell-based or functional assay

| Binder | % internalization, NCI-N87-CLDN18.2, 37 C 2 h | % internalization, NUGC4-CLDN18.2, 37 C 2 h |
| --- | --- | --- |
| B1 | > 50% | > 80% |
| B2 | > 50% | > 80% |
| B3 | > 50% | > 80% |
| B4 | < 30% | < 15% |

Biological target: T1, human Claudin 18.2 (CLDN18.2)
Assay: cell-based or functional assay
Remark: another data set of the same source

| Binder | ADCC EC50, NCI-N87-18.2 cells, FcR-TANK effectors |
| --- | --- |
| B5 | 159 nM |
| B6 | 8.56 nM |
| B7 | 9.56 nM |

Biological target: T1, human Claudin 18.2 (CLDN18.2)
Assay: cell-based or functional assay
Remark: another data set of the same source

| Binder | % specific cytotoxicity @ 6.67 nM, NUGC4-CLDN18.2, PBMC | ADCC EC50, NUGC4-CLDN18.2 cells, PBMC |
| --- | --- | --- |
| B5 | 19.6% | 4.87 nM |

Biological target: T1, human Claudin 18.2 (CLDN18.2)
Assay: cell-based or functional assay
Remark: another data set of the same source

| Binder | % ADCC @ 6.67 nM, NCI-N87-CLDN18.2, FcR-TANK | ADCC EC50, NCI-N87-CLDN18.2, FcR-TANK |
| --- | --- | --- |
| B8 | 13.5% | 0.4 nM |
| B9 | 10.8% | 0.41 nM |
| B10 | 15.1% | 0.47 nM |
| B11 | 16.3% | 0.37 nM |
| B12 | 14.1% | 0.31 nM |
| B13 | 13.3% | 0.44 nM |
| B5 | 2.3% | 1.81 nM |

Biological target: T1, human Claudin 18.2 (CLDN18.2)
Assay: cell-based or functional assay
Remark: another data set of the same source

| Binder | % specific cytotoxicity @ 6.67 nM, NUGC4-CLDN18.2, PBMC | ADCC EC50, NUGC4-CLDN18.2, PBMC |
| --- | --- | --- |
| B8 | 26.7% | 13.3 nM |
| B9 | 26.2% | 11.3 nM |
| B10 | 27% | 8.98 nM |
| B11 | 34.6% | 4.38 nM |
| B12 | 34.3% | 5.97 nM |
| B13 | 31.5% | 7.18 nM |

Biological target: T1, human Claudin 18.2 (CLDN18.2)
Assay: cell-based or functional assay
Remark: another data set of the same source

| Binder | CDC EC50, human serum, CHO-CLDN18.2 |
| --- | --- |
| B8 | 1.48 nM |
| B9 | 1.28 nM |
| B10 | 0.78 nM |
| B11 | 1.07 nM |
| B12 | 1.06 nM |
| B13 | 1.66 nM |

Biological target: T2, CLDN18.2 endogenously expressed on SNU620 gastric cancer cells (UniProt P56856-2 1-261, limits assumed)
T2 construct: whole, on cells; also called SU620
Assay: FACS Exp. 3, SNU620 cells

| Binder | MFI_SNU620 (@30 ug/ml) |
| --- | --- |
| B14 | 1080 MFI |
| B15 | 1190 MFI |
| B16 | 1310 MFI |
| B17 | 1340 MFI |
| B18 | 1220 MFI |
| B19 | 1230 MFI |
| B20 | 1240 MFI |

Biological target: T1, human Claudin 18.2 (CLDN18.2)
Assay: FACS on CHO-CLDN18.2 cells

| Binder | EC50 |
| --- | --- |
| B17 | 3.68 nM |
| B13 | 2.6 nM |

Biological target: T1, human Claudin 18.2 (CLDN18.2)
Assay: FACS on CHO-CLDN18.2 cells
Remark: another data set of the same source

| Binder | EC50 |
| --- | --- |
| B17 | 3.17 nM |
| B10 | 2.31 nM |
| B11 | 2.38 nM |
| B12 | 2.43 nM |

Biological target: T1, human Claudin 18.2 (CLDN18.2)
Assay: FACS on CHO-CLDN18.2 cells
Remark: another data set of the same source

| Binder | EC50 |
| --- | --- |
| B17 | 2.75 nM |
| B8 | 3.5 nM |
| B9 | 4.22 nM |

Biological target: T1, human Claudin 18.2 (CLDN18.2)
Assay: FACS Exp. 1, MFI ratio CHO-18.2 over CHO-18.1

| Binder | MFI_CHO-18.2/CHO-18.1 (@30 ug/ml) |
| --- | --- |
| B14 | 1240 |
| B15 | 960 |
| B16 | 808 |
| B17 | 1190 |
| B18 | 1230 |
| B19 | 1380 |
| B20 | 981 |

Biological target: T1, human Claudin 18.2 (CLDN18.2)
Assay: FACS Exp. 2, MFI ratio CHO-18.2 over CHO-18.1

| Binder | MFI_CHO-18.2/CHO-18.1 (@30 ug/ml) |
| --- | --- |
| B14 | 2540 |
| B15 | 1610 |
| B16 | 1500 |
| B17 | 2000 |
| B18 | 1940 |
| B19 | 2020 |
| B20 | 987 |
